How the values were obtained:
[1] = biological target: Type I IFN receptor (human) (UniProt P17181); assay: cell-based or functional assay
[2] = biological target: T1, Type II IFN (IFN γ) receptor (human) (UniProt P15260); assay: cell-based or functional assay
T1 sequence (looked up) 1: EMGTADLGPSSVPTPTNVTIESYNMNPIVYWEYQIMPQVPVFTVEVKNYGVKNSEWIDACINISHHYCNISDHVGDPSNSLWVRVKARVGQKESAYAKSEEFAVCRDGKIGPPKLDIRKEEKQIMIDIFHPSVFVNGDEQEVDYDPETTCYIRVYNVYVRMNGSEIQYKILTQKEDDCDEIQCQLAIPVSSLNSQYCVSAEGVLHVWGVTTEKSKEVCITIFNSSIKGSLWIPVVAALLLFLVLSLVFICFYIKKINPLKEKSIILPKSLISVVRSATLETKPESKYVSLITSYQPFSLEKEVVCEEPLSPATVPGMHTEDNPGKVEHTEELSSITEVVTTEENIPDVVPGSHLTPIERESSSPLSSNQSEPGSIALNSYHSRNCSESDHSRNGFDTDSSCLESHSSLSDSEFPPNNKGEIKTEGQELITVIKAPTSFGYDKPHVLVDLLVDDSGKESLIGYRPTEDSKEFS
T1 sequence (looked up) 2: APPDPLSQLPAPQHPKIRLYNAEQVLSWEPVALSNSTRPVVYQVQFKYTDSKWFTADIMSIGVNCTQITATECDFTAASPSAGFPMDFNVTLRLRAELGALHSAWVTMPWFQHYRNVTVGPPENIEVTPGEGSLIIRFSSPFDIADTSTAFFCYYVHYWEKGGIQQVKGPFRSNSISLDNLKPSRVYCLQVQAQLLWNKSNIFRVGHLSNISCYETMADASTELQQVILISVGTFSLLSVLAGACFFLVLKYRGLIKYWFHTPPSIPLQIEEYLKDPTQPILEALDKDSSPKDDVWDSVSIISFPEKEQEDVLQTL

Chain of UniProt P17181 (P17181 28-557, chain 1 of 2): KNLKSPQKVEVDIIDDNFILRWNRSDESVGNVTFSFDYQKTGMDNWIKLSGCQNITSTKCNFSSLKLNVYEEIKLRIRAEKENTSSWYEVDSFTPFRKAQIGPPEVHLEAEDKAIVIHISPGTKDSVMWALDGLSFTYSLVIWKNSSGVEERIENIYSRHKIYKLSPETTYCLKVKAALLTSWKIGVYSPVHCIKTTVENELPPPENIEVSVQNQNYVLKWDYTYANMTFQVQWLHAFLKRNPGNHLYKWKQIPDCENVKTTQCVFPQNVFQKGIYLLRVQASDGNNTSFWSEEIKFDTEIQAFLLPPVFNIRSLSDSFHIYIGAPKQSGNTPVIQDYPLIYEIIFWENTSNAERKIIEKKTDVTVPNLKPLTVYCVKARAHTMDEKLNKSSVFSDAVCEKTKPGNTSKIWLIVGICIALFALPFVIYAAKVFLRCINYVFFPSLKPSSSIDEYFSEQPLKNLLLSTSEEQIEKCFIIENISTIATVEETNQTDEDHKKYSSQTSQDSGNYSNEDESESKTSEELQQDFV
Chain of UniProt P17181 (P48551 27-515, chain 2 of 2, further chain): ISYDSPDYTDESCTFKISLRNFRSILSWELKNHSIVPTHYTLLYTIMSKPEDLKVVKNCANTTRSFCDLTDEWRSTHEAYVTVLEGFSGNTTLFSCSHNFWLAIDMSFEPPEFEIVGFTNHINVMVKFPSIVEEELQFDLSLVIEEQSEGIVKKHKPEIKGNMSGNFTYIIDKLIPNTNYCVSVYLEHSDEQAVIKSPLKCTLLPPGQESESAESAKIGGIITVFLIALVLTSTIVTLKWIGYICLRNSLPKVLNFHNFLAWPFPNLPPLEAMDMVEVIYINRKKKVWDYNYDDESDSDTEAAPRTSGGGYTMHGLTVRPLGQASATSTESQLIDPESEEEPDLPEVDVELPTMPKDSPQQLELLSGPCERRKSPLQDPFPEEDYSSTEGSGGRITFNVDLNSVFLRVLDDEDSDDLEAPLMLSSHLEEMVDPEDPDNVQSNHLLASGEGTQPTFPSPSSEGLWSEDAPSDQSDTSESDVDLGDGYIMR

RLU (Relative Luciferase Units): Fold Increase, GAS-Luc reporter in U937 cells, IFNα 1.0 IU/ml [1] [fold] | RLU (Relative Luciferase Units): Fold Increase, GAS-Luc reporter in U937 cells, IFNα 100.0 IU/ml [1] [fold] | RLU (Relative Luciferase Units): Fold Increase, GAS-Luc reporter in U266R cells Clone 2 (UIG2), IFNγ 1.0 IU/ml [2] [fold] | RLU (Relative Luciferase Units): Fold Increase, GAS-Luc reporter in U266R cells Clone 2 (UIG2), IFNγ 100 0 IU/ml (so in the source) [2] [fold] | RLU (Relative Luciferase Units): Fold Increase, GAS-Luc reporter in U937 cells, IFNγ 10.0 IU/ml [2] [fold] | RLU (Relative Luciferase Units): Fold Increase, GAS-Luc reporter in U937 cells, IFNγ 100 0 IU/ml (so in the source) [2] [fold] | fold increase in RLU, IRF-Luc reporter in U937 cells Clone #2 (IRF-Luc2), IFNγ [2] [fold] | Substance
1.5 | 3 |  |  |  |  |  | human IFNα (ligand)
 |  | 1.5 | 9 | 1.25 | 1.5 | 1.1 | human interferon gamma (IFNγ) (from UniProt P01579 24-166) (ligand)
